The record followed here is paper PMC8939769.

This assay concerns the target SARS-CoV-2 spike protein receptor binding domain (RBD) (SARS-CoV-2) (UniProt P0DTC2). Put plainly: ELISA.

Turning to “AZD7442 (combination of AZD8895 and AZD1061)”, the IC50 stood at 0.065 µg/mL.
